Assay results: patent US20220288219A1 (MYTHIC THERAPEUTICS, published 2022)

Target: T1, CD22 Protein (His Tag), Sino Biological Cat. No. 11958-H08H (UniProt P20273 20-687)
T1 construct: soluble analyte, 50 nM in BLI; also called Sino Biological antigen
T1 sequence (looked up): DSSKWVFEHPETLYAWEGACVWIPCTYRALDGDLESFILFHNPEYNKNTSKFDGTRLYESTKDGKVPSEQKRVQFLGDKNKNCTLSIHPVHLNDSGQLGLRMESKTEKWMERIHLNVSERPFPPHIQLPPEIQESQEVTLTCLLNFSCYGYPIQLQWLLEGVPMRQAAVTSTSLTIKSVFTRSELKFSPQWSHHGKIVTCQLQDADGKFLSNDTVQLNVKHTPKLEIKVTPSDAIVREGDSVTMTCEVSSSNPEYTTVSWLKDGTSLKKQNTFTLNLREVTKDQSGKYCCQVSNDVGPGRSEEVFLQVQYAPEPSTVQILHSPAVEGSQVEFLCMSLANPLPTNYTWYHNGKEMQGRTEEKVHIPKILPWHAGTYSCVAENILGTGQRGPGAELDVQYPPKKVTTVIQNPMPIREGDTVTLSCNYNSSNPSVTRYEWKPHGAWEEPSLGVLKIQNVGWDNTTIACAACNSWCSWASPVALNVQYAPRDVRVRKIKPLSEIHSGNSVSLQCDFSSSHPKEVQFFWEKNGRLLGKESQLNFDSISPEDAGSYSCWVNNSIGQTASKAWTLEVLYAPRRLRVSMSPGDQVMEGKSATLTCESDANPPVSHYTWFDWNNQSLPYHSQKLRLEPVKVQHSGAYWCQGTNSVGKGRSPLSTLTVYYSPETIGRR
Assay: BLI, IgG on anti-human Fc sensor

Row | Binder | binding result
1 | MYT4715 (antibody, V domains shown, 19A3 VH A96H; tie by order) VH: QVQLQQWGAGLLKPSETLSLTCAVYGRSFSSYYWSWIRQPPGKGLEWIGDIQHSGSTNYNPSLKSRVTISVDTSKNQFSLKLSSVTAADTAVYYCHGTFYDILTGYYPLGYWGPGTLVTVSS VL: not shown | no binding (tested: 50 nM)
2 | MYT4718 (antibody, V domains shown, 19A3 VH F99H; tie by order) VH: QVQLQQWGAGLLKPSETLSLTCAVYGRSFSSYYWSWIRQPPGKGLEWIGDIQHSGSTNYNPSLKSRVTISVDTSKNQFSLKLSSVTAADTAVYYCAGTHYDILTGYYPLGYWGPGTLVTVSS VL: not shown | no binding (tested: 50 nM)
3 | MYT4720 (antibody, V domains shown, 19A3 VH D101H; tie by order) VH: QVQLQQWGAGLLKPSETLSLTCAVYGRSFSSYYWSWIRQPPGKGLEWIGDIQHSGSTNYNPSLKSRVTISVDTSKNQFSLKLSSVTAADTAVYYCAGTFYHILTGYYPLGYWGPGTLVTVSS VL: not shown | no binding (tested: 50 nM)
4 | MYT4723 (antibody, V domains shown, 19A3 VH T104H; tie by order) VH: QVQLQQWGAGLLKPSETLSLTCAVYGRSFSSYYWSWIRQPPGKGLEWIGDIQHSGSTNYNPSLKSRVTISVDTSKNQFSLKLSSVTAADTAVYYCAGTFYDILHGYYPLGYWGPGTLVTVSS VL: not shown | no binding (tested: 50 nM)
5 | MYT4624 (antibody, V domains shown, 12C5 VH A33H; tie by order) VH: QVQLVQSGSELKKPGASVKVSCKASGYTFTSYHMNWVRQAPGQGLEWMGWINTNTGNPTYAQGFTGRFVFSLDTSVSTAYLQISSLKAEDTAVYYCARLFYYYFGMDVWGQGTTVTVSS VL: QSALTQPASVSGSPGQSITISCTGTSSDVGSYNLVSWYQLHPGKAPKLMIYEVSKRPSGVSNRFSGSRSGNTASLTISGLQAEDEADYYCCSYANSSTLVFGGGTKLTVL | no binding (tested: 50 nM)
6 | MYT4650 (antibody, V domains shown, 12C5 VH G105H; tie by order) VH: QVQLVQSGSELKKPGASVKVSCKASGYTFTSYAMNWVRQAPGQGLEWMGWINTNTGNPTYAQGFTGRFVFSLDTSVSTAYLQISSLKAEDTAVYYCARLFYYYFHMDVWGQGTTVTVSS VL: QSALTQPASVSGSPGQSITISCTGTSSDVGSYNLVSWYQLHPGKAPKLMIYEVSKRPSGVSNRFSGSRSGNTASLTISGLQAEDEADYYCCSYANSSTLVFGGGTKLTVL | no binding (tested: 50 nM)
7 | MYT4626 (antibody, V domains shown, 12C5 VH N35H; tie by order) VH: QVQLVQSGSELKKPGASVKVSCKASGYTFTSYAMHWVRQAPGQGLEWMGWINTNTGNPTYAQGFTGRFVFSLDTSVSTAYLQISSLKAEDTAVYYCARLFYYYFGMDVWGQGTTVTVSS VL: QSALTQPASVSGSPGQSITISCTGTSSDVGSYNLVSWYQLHPGKAPKLMIYEVSKRPSGVSNRFSGSRSGNTASLTISGLQAEDEADYYCCSYANSSTLVFGGGTKLTVL | no binding (tested: 50 nM)
8 | MYT4651 (antibody, V domains shown, 12C5 VH M106H; tie by order) VH: QVQLVQSGSELKKPGASVKVSCKASGYTFTSYAMNWVRQAPGQGLEWMGWINTNTGNPTYAQGFTGRFVFSLDTSVSTAYLQISSLKAEDTAVYYCARLFYYYFGHDVWGQGTTVTVSS VL: QSALTQPASVSGSPGQSITISCTGTSSDVGSYNLVSWYQLHPGKAPKLMIYEVSKRPSGVSNRFSGSRSGNTASLTISGLQAEDEADYYCCSYANSSTLVFGGGTKLTVL | no binding (tested: 50 nM)
9 | MYT4649 (antibody, V domains shown, 12C5 VH F104H; tie by order) VH: QVQLVQSGSELKKPGASVKVSCKASGYTFTSYAMNWVRQAPGQGLEWMGWINTNTGNPTYAQGFTGRFVFSLDTSVSTAYLQISSLKAEDTAVYYCARLFYYYHGMDVWGQGTTVTVSS VL: QSALTQPASVSGSPGQSITISCTGTSSDVGSYNLVSWYQLHPGKAPKLMIYEVSKRPSGVSNRFSGSRSGNTASLTISGLQAEDEADYYCCSYANSSTLVFGGGTKLTVL | no binding (tested: 50 nM)

The next lines start with the values.

Row | binding result | Binder
10 | no binding (tested: 50 nM) | MYT1525 (antibody, V domains shown, ADCT-602 VH R99H; tie by order) VH: QVQLVQSGAEVKKPGSSVKVSCKASGYTFTSYWLHWVRQAPGQGLEWIGYINPRNDYTEYNQNFKDKATITADESTNTAYMELSSLRSEDTAFYFCARHDITTFYWGQGTTVTVSS VL: DIQLTQSPSSLSASVGDRVTMSCKSSQSVLYSANHKNYLAWYQQKPGKAPKLLIYWASTRESGVPSRFSGSGSGTDFTFTISSLQPEDIATYYCHQYLSSWTFGGGTKVQIK
11 | no binding (tested: 50 nM) | MYT1527 (antibody, V domains shown, ADCT-602 VH I101H; tie by order) VH: QVQLVQSGAEVKKPGSSVKVSCKASGYTFTSYWLHWVRQAPGQGLEWIGYINPRNDYTEYNQNFKDKATITADESTNTAYMELSSLRSEDTAFYFCARRDHTTFYWGQGTTVTVSS VL: DIQLTQSPSSLSASVGDRVTMSCKSSQSVLYSANHKNYLAWYQQKPGKAPKLLIYWASTRESGVPSRFSGSGSGTDFTFTISSLQPEDIATYYCHQYLSSWTFGGGTKVQIK
12 | no binding (tested: 50 nM) | MYT1526 (antibody, V domains shown, ADCT-602 VH D100H; tie by order) VH: QVQLVQSGAEVKKPGSSVKVSCKASGYTFTSYWLHWVRQAPGQGLEWIGYINPRNDYTEYNQNFKDKATITADESTNTAYMELSSLRSEDTAFYFCARRHITTFYWGQGTTVTVSS VL: DIQLTQSPSSLSASVGDRVTMSCKSSQSVLYSANHKNYLAWYQQKPGKAPKLLIYWASTRESGVPSRFSGSGSGTDFTFTISSLQPEDIATYYCHQYLSSWTFGGGTKVQIK
13 | no binding (tested: 50 nM) | MYT1529 (antibody, V domains shown, ADCT-602 VH T103H; tie by order) VH: QVQLVQSGAEVKKPGSSVKVSCKASGYTFTSYWLHWVRQAPGQGLEWIGYINPRNDYTEYNQNFKDKATITADESTNTAYMELSSLRSEDTAFYFCARRDITHFYWGQGTTVTVSS VL: DIQLTQSPSSLSASVGDRVTMSCKSSQSVLYSANHKNYLAWYQQKPGKAPKLLIYWASTRESGVPSRFSGSGSGTDFTFTISSLQPEDIATYYCHQYLSSWTFGGGTKVQIK
